The target of data set [1] is T1, Mycobacterium tuberculosis DnaK, wild type, full length (Mycobacterium tuberculosis, UniProt P9WMJ9 1-625).
T1 construct: DnaK (Hsp70 chaperone) of Mycobacterium tuberculosis, full length; also called Mtb DnaK; WT DnaK
As to the kind of experiment: fluorescence polarisation; direct binding of F-NR to DnaK in the presence of ADP or without nucleotide. The conditions noted are these: both partners purified.

Data set [2] deals with T2, Mycobacterium tuberculosis DnaK Mut-1 (Y106A, L107A) (Mycobacterium tuberculosis, UniProt P9WMJ9 1-625, Y106A | L107A).
T2 construct: DnaK of Mycobacterium tuberculosis, full length, with two alanine substitutions in NBD subdomain IA
Kind of data set: ITC. The conditions noted are these: both partners purified.

Data set [3] has as its target T3, Mycobacterium tuberculosis DnaK, full length, wild type (Mycobacterium tuberculosis, UniProt P9WMJ9 1-625).
T3 construct: DnaK (Hsp70 chaperone) of Mycobacterium tuberculosis, full length; also called Mtb DnaK; WT DnaK
Kind of data set: ITC. To be noted: both partners purified.

Data set [4] has as its target T1, Mycobacterium tuberculosis DnaK, wild …. As to the kind of experiment: SEC-MALS. To be noted: both partners purified. In general terms: SEC sorts molecules by how far they enter the pores of the column.
Data set [5] concerns the molecule itself. As to the kind of experiment: cryo-EM structure; DnaK 2 μM, DnaJ2 4 μM, GrpE 4 μM, telaprevir 200 μM in 25 mM Tris pH 8.0, 40 mM NaCl, 10 mM MgCl2; no nucleotide; 3.7 Å map.

The values that follow come from PMC10803776, “Structure of the M. tuberculosis DnaK−GrpE complex reveals how key DnaK roles are controlled” (Nature Communications, 2024).

Ends that are not written are not given here.

The Kd is the free concentration of one partner at which half of the binding sites on the other are occupied at equilibrium, for simple one-to-one binding. Low readings indicate higher affinity, high ones lower affinity. By stoichiometry N is commonly meant a count of units in the complex or per binding partner.

B1: N-terminal fluorescein-labeled NR peptide (NRLLLTG) (peptide)
peptide: fluorescein-NRLLLTG
notes: model peptide substrate of DnaK; also called F-NR; fluorescently tagged NR; source: bought: PEPTIDE 2.0 (purity >95%)
As to B1, in data set [1], the binding result is “binds”.

B2: Mycobacterium tuberculosis GrpE, full length, wild type (natural protein)
chain: MTDGNQKPDGNSGEQVTVTDKRRIDPETGEVRHVPPGDMPGGTAAADAAHTEDKVAELTADLQRVQADFANYRKRALRDQQAAADRAKASVVSQLLGVLDDLERARKHGDLESGPLKSVADKLDSALTGLGLVAFGAEGEDFDPVLHEAVQHEGDGGQGSKPVIGTVMRQGYQLGEQVLRHALVGVVDTVVVDAAELESVDDGTAVADTAENDQADQGNSADTSGEQAESEPSGS
notes: GrpE (nucleotide exchange factor) of Mycobacterium tuberculosis, full length; also called Mtb GrpE; WT GrpE
In the case of B2, in data set [2], the affinity, expressed as Kd, was 1070 nM and the “stoichiometry N” value stood at 0.13. Further, in data set [3], the Kd is 240 nM and the “stoichiometry N” value is 0.69.

B3: Mycobacterium tuberculosis GrpE, wild type, full length (natural protein)
chain: MTDGNQKPDGNSGEQVTVTDKRRIDPETGEVRHVPPGDMPGGTAAADAAHTEDKVAELTADLQRVQADFANYRKRALRDQQAAADRAKASVVSQLLGVLDDLERARKHGDLESGPLKSVADKLDSALTGLGLVAFGAEGEDFDPVLHEAVQHEGDGGQGSKPVIGTVMRQGYQLGEQVLRHALVGVVDTVVVDAAELESVDDGTAVADTAENDQADQGNSADTSGEQAESEPSGS
notes: GrpE (nucleotide exchange factor) of Mycobacterium tuberculosis, full length, 235 residues (C-terminal residues printed as aa 188-235); also called Mtb GrpE; WT GrpE
Regarding B3, the “stoichiometry N” value turned out to be 2 GrpE per DnaK in data set [4] and 2 in data set [5].
